What follows are sequences tested on Escherichia coli TOP10 (assay: shrunken log2 fold change of peptide-encoding DNA abundance (4.5 h post-induction vs induction); higher = less antimicrobial activity (less host growth inhibition)). Conditions: time post-induction: 4.5 h; library: site-saturation at positions 5, 18, 19, 20.
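Also: peptides expressed intracellularly from a pBAD plasmid library in pooled LB shake-flask culture, induced with 0.3% L-arabinose, DNA abundance read by NGS, three biological replicates, DESeq2 with apeglm shrinkage.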

Sequence | shrunken log2 fold change
RRIRGRPPRLPRPRPRPIDYPRP | -0.0822
RRIRERPPRLPRPRPRPTWNPRP | -0.167
RRIRWRPPRLPRPRPRPGLRPRP | 0.53
RRIRGRPPRLPRPRPRPYFNPRP | -0.439
RRIRVRPPRLPRPRPRPCQVPRP | -0.0502
RRIRPRPPRLPRPRPRPCKGPRP | -0.252
RRIRKRPPRLPRPRPRPEMGPRP | 0.502
RRIRFRPPRLPRPRPRPHPWPRP | -0.212
RRIRNRPPRLPRPRPRPRRGPRP | 0.78
RRIRMRPPRLPRPRPRPYPHPRP | 0.00442
RRIRFRPPRLPRPRPRPHSWPRP | -0.0147
RRIRNRPPRLPRPRPRPGLHPRP | -0.0523
RRIRQRPPRLPRPRPRPGLVPRP | 0.18
RRIRSRPPRLPRPRPRPLPWPRP | 0.21
RRIRERPPRLPRPRPRPECAPRP | 0.586
RRIRDRPPRLPRPRPRPQRKPRP | 0.0137
RRIRMRPPRLPRPRPRPWTCPRP | -0.0398
RRIRYRPPRLPRPRPRPKYHPRP | -2.19
RRIRGRPPRLPRPRPRPYIFPRP | -0.135
RRIRMRPPRLPRPRPRPIMMPRP | -0.00663
RRIRWRPPRLPRPRPRPNSCPRP | 0.0578
RRIRPRPPRLPRPRPRPSCTPRP | -0.221
RRIRTRPPRLPRPRPRPQNNPRP | -0.716
RRIRQRPPRLPRPRPRPNHMPRP | -0.422
RRIRGRPPRLPRPRPRPGRTPRP | 0.498

Sequence | shrunken log2 fold change
RRIRERPPRLPRPRPRPRITPRP | -0.578
RRIRWRPPRLPRPRPRPGMLPRP | -0.11
RRIRVRPPRLPRPRPRPWCCPRP | -0.203
RRIRPRPPRLPRPRPRPHKVPRP | -0.429
RRIRGRPPRLPRPRPRPHTCPRP | 0.104
RRIRHRPPRLPRPRPRPRTHPRP | -0.137
RRIRVRPPRLPRPRPRPDQLPRP | 0.112
RRIRWRPPRLPRPRPRPEYDPRP | 0.695
RRIRTRPPRLPRPRPRPNAPPRP | -0.0472
RRIRDRPPRLPRPRPRPNMRPRP | -0.00803
RRIRPRPPRLPRPRPRPEHVPRP | 0.0556
RRIRARPPRLPRPRPRPWMPPRP | -0.216
RRIRWRPPRLPRPRPRPQELPRP | -0.0075
RRIRGRPPRLPRPRPRPKKYPRP | 0.119
RRIRLRPPRLPRPRPRPKAVPRP | -0.0189
RRIRFRPPRLPRPRPRPDIGPRP | -0.0309
RRIRGRPPRLPRPRPRPGTKPRP | 0.652
RRIRARPPRLPRPRPRPMAHPRP | 0.733
RRIRIRPPRLPRPRPRPFCQPRP | -0.412
RRIRFRPPRLPRPRPRPNASPRP | -0.304
RRIRWRPPRLPRPRPRPHGTPRP | -0.137
RRIRPRPPRLPRPRPRPLISPRP | -0.17
RRIRSRPPRLPRPRPRPGWVPRP | 0.549
RRIRIRPPRLPRPRPRPPADPRP | 0.271
RRIRVRPPRLPRPRPRPMYYPRP | -0.706

Sequence | shrunken log2 fold change
RRIRVRPPRLPRPRPRPFMTPRP | 0.127
RRIRVRPPRLPRPRPRPTYTPRP | -0.172
RRIRPRPPRLPRPRPRPEQMPRP | 0.0974
RRIRLRPPRLPRPRPRPGATPRP | 0.527
RRIRSRPPRLPRPRPRPTCDPRP | 0.109
RRIRLRPPRLPRPRPRPCNHPRP | -0.0991
RRIRTRPPRLPRPRPRPRGGPRP | 0.334
RRIRFRPPRLPRPRPRPDPIPRP | 0.159
RRIRDRPPRLPRPRPRPGHLPRP | -0.000122
RRIRQRPPRLPRPRPRPLEHPRP | -0.109
RRIRCRPPRLPRPRPRPCFQPRP | -0.212
RRIRYRPPRLPRPRPRPNKNPRP | -0.935
RRIRTRPPRLPRPRPRPPVIPRP | 0.213
RRIRWRPPRLPRPRPRPMLVPRP | 0.288
RRIRERPPRLPRPRPRPIQLPRP | -0.446
RRIRNRPPRLPRPRPRPPPPPRP | 1.25
RRIRVRPPRLPRPRPRPTNCPRP | -0.075
RRIRRRPPRLPRPRPRPSRQPRP | 0.352
RRIRSRPPRLPRPRPRPSNVPRP | -0.47
RRIRARPPRLPRPRPRPNCVPRP | 0.23
RRIRLRPPRLPRPRPRPRMRPRP | 0.667
RRIRHRPPRLPRPRPRPIKLPRP | -0.118
RRIRIRPPRLPRPRPRPTSPPRP | 0.118
RRIRERPPRLPRPRPRPFSRPRP | -0.0038
RRIRYRPPRLPRPRPRPIRSPRP | -0.214

Reference: the supplement of paper PMC9112550, “Optimization of the antimicrobial peptide Bac7 by deep mutational scanning” (BMC Biology, 2022)
